# Source: the RNAGym collection of RNA variant scans (doi:10.1073/pnas.2313332121)
# Variants at the floor of the assay were thinned out.
# B1: TPR 5TU (parent)
# chain: GGAUCUUCUCGAUCUAACAAAAAAGACAAAUCUGCCACAAAGCUUGAGAGCAUCUUCGGAUGCAGAGGCGGCAGCCUUCGGUGGCGCGAUAGCGCCAACGUUCUCAACUAUGACACGCAAAACGCGUGCUCCGUUGAAUGGAGUUUAUCAUG
# Variants of: B1
# Assay: polymerase ribozyme fitness, log enrichment relative to wild type (log ratio); higher = more active; in vitro selection for triplet polymerase activity
# Summary of the method: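 One round of in vitro selection, in triplicate, was applied to PCR-built, transcribed mutant libraries of each subunit of a heterodimeric triplet polymerase ribozyme. The steps were annealing with a biotinylated primer, partner subunit and triplets, incubation frozen at −7 °C, gel excision of extended constructs, streptavidin-bead capture and RT-PCR. Fitness is the logarithm, base 2, of genotype enrichment over wild-type enrichment from inverse-variance-weighted replicate averages of Illumina-sequenced inputs and outputs, keeping genotypes with ≥10 input reads and ≥1 read per output.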
row,Variant,polymerase ribozyme fitness (log ratio)
1,GGAUCUUCUCGAUCUAACAAAAAAGACACAUAUGCCACAAAGCUUGAGAGCAUCUUCGGAUGCAGAGGCGGCAGCCUUCGGUGGCGCGAUAGCGCCAACGUUCUCAACUAUGACACGCAAAACGCGUGCUCCGUUGAAUGGAGUUUAUCAUG [A29C C32A],≤ -4.2
2,GGAUCUUCUCGAUCUAACAAAAAAGACACAUCUGCCACAAAGCUUGAGCGCAUCUUCGGAAGCAGAGGCGGCAGCCUUCGGUGGCGCGAUAGCGCCAACGUUCUCAACUAUGACACGCAAAACGCGUGCUCCGUUGACUGGAGUUUAUCAUG [A29C A49C U61A A138C],≤ -4.2
3,GGAUCUUCUCGAUCUAACAAAAAAGACACAUCUGCCACAAAUCUUGAGAGCAUGUUCGGAUGCAGAGGCGGCAGCCUUCGGUGGCGCGAUAGGCCCAUCGUUCUCAACUAUGACACGCAAAACGCGUGCUCCGUUAAAUGGGGUUUAUCAUU [A29C G42U C54G C93G G94C A98U G136A A142G G152U],≤ -4.2
4,GGAUCUUCUCGAUCUAACAAAAAAGACACAUCUGCCACAAAGCUUGAGAGCAUCUUCGGAUGCAGAGGCGGCAGCCUUCGGUGGUGCGAUAGCGCCAACGUUCUCAACUAUGACACGCAAAACGCGUGCUCCGUUGAAUGGAGUUUAUCAUG [A29C C85U],-3.79
5,GGAUCUUCUCGAUCUAACAAAAAAGACUAAUCUGCCACAAAGCUUGAGAGCAUCUUCGGAUGCAGACGCGGCAGCCAUCGGUGGCGCGACAGCGUCAACGUUCUUAACUAUGACACGCAAAACGCGUGCUCCGUUGAAUGGGGUUUAUCAUG [A28U G67C U77A U90C C95U C105U A142G],≤ -4.2
6,GGAUCUUCUCGAUCUAACAAAAAAGACACAUCUGCCACAAAGCUUGAGAGCAUCUUCGGAUGCAGACGCGGCAGCCUUCGGUGGCGCGUUAGCUCCAACGUUCUCAACUAUGACACGCAAAACGCGUGCUCCGUUGAAUGGAGUUUAUCAUG [A29C G67C A89U G94U],≤ -4.2
7,GGAUCUUCUCGAUCUAACAAAAAAGACACAUCUGCCACAAAGCUUGAGAGUAUCUUCGGAUGCAGAGGCGGCAGCCUUCGGUCGCGCGAUAGCGUCAACGUUCUCAACUAUGACACGCAAAACGCGUGCUCCGUUGGAUGGACUUUAUCAUG [A29C C51U G83C C95U A137G G143C],≤ -4.2
8,GGAUCUUCUCGAUCUAACAAAAAAGACUAAUCUGCCACAAAGCUUGAGAGCAUCUUCGGAUGCAGAGGCUGCAGCCUUCGGUCGCGCGAUAGCGCCAACGUUCUCAACUAUGACACGCAAAACGCGUGCUUCGUUGAAUGGAGUUUAUCAUG [A28U G70U G83C C131U],≤ -4.2
9,GGAUCUUCUCGAUCUAACAAAAAAGACACAUCUGCCACAAAGCUUGACAGCAUCUUCGGAUGCAGAGGCGGCAGCCUUAGGUGGCGCGAUAGCGCCAACGUUCUCAACUAUGACACGCAAAGCUCGUGCUCCGUUGAAUGGAGAGUAUCAUU [A29C G48C C79A A122G G124U U144A U145G G152U],≤ -4.2
10,GGAUCUUCUCGAUCUAACAAAAAAGACACAUCUGCGACAAAGCUUGAGAGCAUCUUCGGAUGCAGAGGCGGCAGCCUCCGGUGGCGCGAUAGGGCCGACGUUCUCAACUAUGACACGCAAAACGCGUGCUCCGUUGAAUGGAGUUUAUCAUG [A29C C36G U78C C93G A97G],≤ -4.2
11,GGAUCUUCUCGAUCUAACAAAAAAGACACAUCUGCCACAAAGCUUGAGAGCCUUUUCGGAUGCAGAGGCGGCAGCCUUCGGCGGCGCGAAAGCGCCAACGUUCUCAACUAUGACACGCAAAACGCGUGCUCCGUUAAAUGGAGUUUAUCAUG [A29C A52C C54U U82C U90A G136A],≤ -4.2
12,GGAUCUUCUCGAUCUAACAAAAAAGACACAUCUGCCCCAAAGCUUGAGAGCAUCUUCGGAUGCGGAGGCGGCAGCCUUCGGUGGCGAGAUAGCGGCAACGUUCUCAACUAUGACACGCAAAACGCGUGCUCCGUUGAAUGGAGUUGAUCAUG [A29C A37C A64G C87A C95G U146G],≤ -4.2
13,GGAUCUUCUCGAUCUAACAAAAAAGACACAUCUGCCACAAAGCUUGAGAGCGUCUUCGGAUGCAGAGGCGGCAGCCUUCGGUGGCGUGAUAGCGCCAACCUUCUCAACUAUGACACGCAAAACGCGUGCUCCGUUGAUAGGAGUUUCUCAUG [A29C A52G C87U G100C A138U U139A A147C],≤ -4.2
14,GGAUCUUCUCGAUCUAACAAAAAAGACACAUUUGGCACAAAGCUUGAGAGCAUCUUCGGAUGCAGUGGCGGCAGCCUUCGGUGGCGAGAUAGCCCCAACGUUCUCAUCUAUGACACGCAAAACGUGUGCUCCGUUGAAUGGAGUUUAUCAUG [A29C C32U C35G A66U C87A G94C A107U C125U],≤ -4.2
15,GGAUCUUCUCGAUCUAACAAAAAAGACACUUCUGCCACAAAUCUUGAGAGCAUCUUCGGAUGCAGAGGCGGCAGCCUUCGGUGGCGCGAUAGUGCCAACGUUCUGAACUAUGACACGCAAAACGCGUGCUCCGUUGAAGGGAGUUUAUCAUG [A29C A30U G42U C93U C105G U139G],≤ -4.2
16,GGAUCUUCUCGAUCUAACAAAAAAGACACAUCUGCCCCAAAGCUUGAGAGCAUCUUCGGAUGCAGAGGCGGCAACCUUCGGUGGCGCGAUAGCGCCGACGUUCUCAACUAUGACACGCAAAACGCGUGCACCGUUGAAUGGAGUUUAUCAUG [A29C A37C G74A A97G U130A],≤ -4.2
17,GGAUCUUCUCGAUCUAACAAAAAAGACUAAUCUGCCACAAAGCUUGAGAGCAUCUUCGGAUGCAGAAGCGGCAACCUUCGGUGGCCCGAUAGCGCCAACGUUCUCAAAUAUGACACGCAAAACGCGUGCUCAGUUGAAUGGAGUUUAUCAUG [A28U G67A G74A G86C C108A C132A],≤ -4.2
18,GGAUCUUCUCGAUCUAACAAAAAAGACACAUCUGCCACAAAGCUUGUGAGCAUCUUCGGAUGCAGAGGCGGCAGCGUUAGGUGGCGCGAUAGCGCCUAAGUUCUCAACUAUGACACGCAAAACGGGUGCUCCGAUGAAUGGAGGUUAUCAUG [A29C A47U C76G C79A A97U C99A C125G U134A U144G],≤ -4.2
19,GGAUCUUCUCGAUCUAACAAAAAAGACACAUCUGCCACAAAGCUUGAGAGCAUCUUGGGAUGCAGAGGCGACAGCCUUCGGUGGCGCGACAGCGCCAACGUUCUCAACUAUGACACGCAAAACGCGUGCUCCGUUGAAUGGAGUUUAUCAUG [A29C C57G G71A U90C],≤ -4.2
